Laboratory results taken from paper doi:10.1101/2021.03.23.436655.

Biological target: fluorescent tagged eIF4E-3 (Drosophila melanogaster)
Assay: FRET or BRET

FRET efficiency: 25%
B1: fluorescent tagged Me31B (FRET partner of eIF4E-3) (natural protein)
chain: MMTEKLNSGHTNLTSKGIINDLQIAGNTSDDMGWKSKLKLPPKDNRFKTTDVTDTRGNEFEEFCLKRELLMGIFEKGWERPSPIQEAAIPIALSGKDVLARAKNGTGKTGAYCIPVLEQIDPTKDYIQALVMVPTRELALQTSQICIELAKHLDIRVMVTTGGTILKDDILRIYQKVQLIIATPGRILDLMDKKVADMSHCRILVLDEADKLLSLDFQGMLDHVILKLPKDPQILLFSATFPLTVKNFMEKHLREPYEINLMEELTLKGVTQYYAFVQERQKVHCLNTLFSKLQINQSIIFCNSTQRVELLAKKITELGYCCYYIHAKMAQAHRNRVFHDFRQGLCRNLVCSDLFTRGIDVQAVNVVINFDFPRMAETYLHRIGRSGRFGHLGIAINLITYEDRFDLHRIEKELGTEIKPIPKVIDPALYVANVGASVGDTCNNSDLNNSANEEGNVSK
